The values below come from patent publication US20150246947A1 (BAXALTA, published 2015).

Where two headings read alike, the source gives them in different places. Non-standard residues stand in square brackets, D forms with d. 400Mal‑PEG = 40 kD PEG moiety attached via maleimide; Cys(Me-400MA) = not defined here Bounds are passed on as bounds.

Assay [1] has as its target T1, human Protein S (human, UniProt P07225 42-676).
T1 sequence: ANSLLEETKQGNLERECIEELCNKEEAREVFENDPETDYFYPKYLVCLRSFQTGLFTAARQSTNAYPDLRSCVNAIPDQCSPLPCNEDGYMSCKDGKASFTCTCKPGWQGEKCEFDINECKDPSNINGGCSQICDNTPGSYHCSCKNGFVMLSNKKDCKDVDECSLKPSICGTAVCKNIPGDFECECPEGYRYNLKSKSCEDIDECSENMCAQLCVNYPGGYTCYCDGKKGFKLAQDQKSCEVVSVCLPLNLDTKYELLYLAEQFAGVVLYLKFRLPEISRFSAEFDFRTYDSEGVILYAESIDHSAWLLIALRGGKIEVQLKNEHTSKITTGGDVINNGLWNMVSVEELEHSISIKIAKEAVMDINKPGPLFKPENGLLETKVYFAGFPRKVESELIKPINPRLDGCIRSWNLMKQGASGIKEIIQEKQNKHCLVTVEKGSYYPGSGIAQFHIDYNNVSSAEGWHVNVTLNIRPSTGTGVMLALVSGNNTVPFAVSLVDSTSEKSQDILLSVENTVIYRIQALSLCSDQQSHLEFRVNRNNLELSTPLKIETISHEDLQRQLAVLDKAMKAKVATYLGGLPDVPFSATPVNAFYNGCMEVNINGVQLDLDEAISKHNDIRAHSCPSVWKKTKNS
Briefly: cell-based or functional assay.

Assay [2] has as its target T1, human Protein S. The assay can be described thus: Biacore (SPR), Protein S immobilized. The method in brief:
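Human full-length Protein S was immobilized at 1000 RU on a […] chip in a Biacore 3000 or Biacore T200 instrument. Peptides at various concentrations in HBS-buffer containing 3 mM CaCl₂ and 1% DMSO were injected over the surface, and the chip was regenerated with 4 M MgCl₂ in HBS-buffer. Binding kinetics were determined by surface plasmon resonance: kon and koff were obtained by fitting sensorgrams to a Langmuir binding model, and Kd was calculated from these rate constants.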
(In general: Surface plasmon resonance follows binding to a sensor surface in real time, without labels.)

Assay [3] concerns the target T2, human GAS6 (human, UniProt Q14393 49-678, limits assumed).
T2 construct: Immobilized on the Biacore chip; also called protein encoded by the Growth Arrest Specific-6 gene; anti-target
T2 sequence (looked up): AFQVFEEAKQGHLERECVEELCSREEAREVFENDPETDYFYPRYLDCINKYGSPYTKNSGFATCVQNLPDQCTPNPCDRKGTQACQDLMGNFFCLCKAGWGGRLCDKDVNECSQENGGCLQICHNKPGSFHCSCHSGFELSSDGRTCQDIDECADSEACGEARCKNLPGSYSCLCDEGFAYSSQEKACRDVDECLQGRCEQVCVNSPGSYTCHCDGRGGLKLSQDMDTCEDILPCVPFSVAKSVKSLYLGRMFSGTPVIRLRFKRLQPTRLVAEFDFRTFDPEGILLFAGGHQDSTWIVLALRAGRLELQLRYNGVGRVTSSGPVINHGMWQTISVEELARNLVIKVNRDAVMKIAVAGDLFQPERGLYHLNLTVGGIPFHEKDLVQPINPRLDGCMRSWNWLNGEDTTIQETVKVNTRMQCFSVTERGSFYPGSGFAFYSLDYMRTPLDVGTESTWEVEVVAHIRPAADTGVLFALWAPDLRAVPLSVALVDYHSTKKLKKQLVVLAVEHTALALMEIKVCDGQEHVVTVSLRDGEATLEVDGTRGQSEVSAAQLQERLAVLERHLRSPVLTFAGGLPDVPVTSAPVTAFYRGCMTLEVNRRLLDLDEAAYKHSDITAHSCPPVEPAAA
The assay can be described thus: method not restated (Biacore in Example 3). The method, boiled down:
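Binding to the anti-target human GAS6 was tested by surface plasmon resonance (Biacore), with 1000 RU GAS6 immobilized on a […] chip. Peptides were injected at various concentrations in HBS-buffer with 3 mM CaCl₂ and 1% DMSO, and the chip was regenerated with 4 M MgCl₂. Kinetic fitting of the GAS6 signals was error prone, so sensorgrams were reviewed visually to estimate anti-target binding.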

In assay [4] the target is T3, human Protein S (UniProt P07225 42-676).
T3 chain: T1 sequence
The assay can be described thus: LANCE competition. The method in brief: (§1)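 A homogeneous time-resolved FRET (LANCE) competition format paired europium-labelled Protein S and ULight-labelled streptavidin with a biotinylated tracer peptide, against which unlabelled test peptide was titrated three-fold. With final concentrations of 10 nM Protein S, 100 nM streptavidin and 300 nM tracer in 50 µl, or 2 nM Protein S and 60 nM tracer when a Tecan F500 was used, samples stood 1 hour at room temperature. Emission was read at 665 nm with excitation at 340 nm. Non-linear regression of these signals gave the IC50.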

Assay [5] concerns the target T3, human Protein S. Briefly: LANCE competition. The method, boiled down: as §1
In assay [6] the target is T1, human Protein S. Briefly: LANCE TR-FRET; peptide added to preformed C4BP/Protein S complex; competitor C4BP. As to the method: To investigate the effect of the peptides described herein on PS/C4BP complexes, a LANCE IC50 assay was established using methods similar to those described above. JBS2572 or JBS3216 was added to a preformed C4BP/PS complex. Changes in the complex concentration were followed by recording the TR-FRET signal. For both peptides, a time- and concentration-dependent dissociation of the C4BP/PS complex was observed. […] The time-dependency of the complex reduction was similar for both peptides. After two hours of incubation in the presence of 100 nM JBS2572 or JBS3216, the C4BP/PS complex was reduced to 60% and 50%, respectively. In addition, binding of biotinylated JBS2572 to Protein S was inhibited by C4BP in the LANCE IC50 assay. Pull-down experiments where JBS2697 was coupled to streptavidin sepharose and incubated for one hour at room temperature with (a) Protein S (1.6 pmol) (b) C4BP (8.5 pmol) and (c) Protein S (1.6 pmol)+C4BP (8.5 pmol) supported the results from the modified LANCE IC50 assay. JBS2697 interacted with free Protein S only from experiment (a) with Protein S alone and from experiment (c) with the C4BP-Protein S mixture.
(In general: Time-resolved FRET reads energy transfer from a long-lived donor to a nearby acceptor.)

B1: JBS3322 (peptide)
peptide: Ac-EYIVTAGWYDYNKDIYYEFK[Cys(Me-400MA)]-NH2
modifications: reading uncertain
notes: JBS3206 monomer comprising a 40 kD PEG moiety
In general, Kd refers to the concentration at which binding is half-saturated. Low readings indicate a tighter complex, high ones a looser complex. The koff is the first-order rate constant of dissociation. Higher therefore signals fast dissociation. A word on the kon: it is the second-order rate constant of association. A word on the IC50: it is the concentration at which inhibition is half-maximal. The low end stands for greater potency in that assay, the high end for weaker potency in that assay. With B1, the “CAT EC50, plasmas from three individuals with severe hemophilia A” value (“CAT EC50, plasmas from three individuals” for short) in assay [1] was less than 100 nM. Also, in assay [2], the Kd is 3.6 nM, the koff is 0.000278 s⁻¹ and the kon is 78000 M⁻¹ s⁻¹. Also, in assay [3], the binding result is “no binding (tested: 1 µM)”. This molecule also registered an IC50 in assay [4] of 4.5 nM.

As for Ac-EYYVSAGWYDYNTDTYYEFE-NH2 [JBS3216], in assay [5], the IC50 was found to be 0.7 nM. Moreover, the “CAT EC50, human hemophilia A patient plasma” value in assay [1] amounted to 85 nM. In addition, the IC50 in assay [6] amounted to 0.3 nM. In addition, in assay [2], the Kd came out at 0.2 nM, the koff came to 0.000233 s⁻¹ and the kon stood at 1.14e+06 M⁻¹ s⁻¹.

B2: JBS3179 (peptide)
peptide: Ac-TGLVSAGWYDYNFDHYREFTC-NH2
modifications: not fully specified (residue 21); also: tetramer: four peptides on a 40 kD four-arm PEG core
In the case of B2, the IC50 in assay [5] was 8 nM. Further, in assay [1], the “CAT EC50” value turned out to be 6 nM and the “CAT EC50, plasmas from three individuals” value is less than 100 nM. Besides, in assay [2], the affinity, expressed as Kd, was 0.4 nM; the koff is 0.000179 s⁻¹; the kon came out at 410000 M⁻¹ s⁻¹. Further, the binding result in assay [3] is reported as “no binding (tested: 1 µM)”.

B3: JBS3318 (peptide)
peptide: Ac-EYYVSAGWYDYNTDTYYEFEC(400Mal‑PEG)-NH2
notes: JBS3319 conjugated to a 40 kD PEG moiety
On to B3, for which, in assay [1], the “CAT EC50, plasmas from three individuals” value was less than 100 nM. In assay [2], this molecule registered a Kd of 1.4 nM, a koff of 0.000213 s⁻¹ and a kon of 152000 M⁻¹ s⁻¹. For the same molecule, the binding result in assay [3] is “no binding (tested: 1 µM)”. The same molecule displayed an IC50 in assay [4] of 2.8 nM.
